# Assay results: US20250011468A1 (Novo Nordisk, published 2025)
# Target: human plasma-derived FIXa (Haematologic Technologies Inc) (human, UniProt P00740 47-191; P00740 227-461)
# Assay: cell-based or functional assay
# Chain of human plasma-derived FIXa (Haematologic Technologies Inc) (P00740 47-191, chain 1 of 2): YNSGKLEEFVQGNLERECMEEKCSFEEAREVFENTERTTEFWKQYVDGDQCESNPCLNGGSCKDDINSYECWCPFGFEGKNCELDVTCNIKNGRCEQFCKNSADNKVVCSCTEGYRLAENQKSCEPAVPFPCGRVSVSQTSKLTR
# Chain of human plasma-derived FIXa (Haematologic Technologies Inc) (P00740 227-461, chain 2 of 2): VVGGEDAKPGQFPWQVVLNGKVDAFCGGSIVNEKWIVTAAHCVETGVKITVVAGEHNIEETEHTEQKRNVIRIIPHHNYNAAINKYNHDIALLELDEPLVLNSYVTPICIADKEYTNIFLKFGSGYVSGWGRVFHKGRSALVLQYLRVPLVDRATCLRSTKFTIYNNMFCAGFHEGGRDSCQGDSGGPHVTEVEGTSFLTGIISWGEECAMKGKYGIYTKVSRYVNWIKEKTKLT
Binder,Stimulation index at 800 nM OA antibody,Stimulation index at 1600 nM OA antibody
"mAb4-9578 (monovalent one-armed version of mAb1-7977) (antibody, V domains shown) VH: EVQLVESGGGLVQPGRSLKLSCAASGFRFDDYAMHWVRQAPGKGLEWVSGISWRGAQIGYADSVKGRFTISRDNAKNSLYLQLNSLRAEDTALYYCAKSYGSGSFYNAFDSWGQGTLVTVSS VL: DIQMTQSPSTLSASVGDRVTITCRASQKISSWLAWYQQKPGKAPKFLIYKASRLDRGVPSRFSGSGSGTEFSLTISSLQPDDFATYYCLEYRSYIRTFGQGTKVEIK",850 fold,
"mAb5-0144 (monovalent one-armed version of mAb1-8780) (antibody, V domains shown) VH: EVQLVESGGGLVQPGRSLKLSCAASGFTFHDYAMHWVRQVPGKGLEWVSGISWRGDIKGYVDSVKGRFTISRDNAKNSLYLQLNSLRAEDTALYYCVKSYGSGSFYNAFDSWGQGTLVTVSS VL: DIQMTQSPSTLSASAGDRVTITCRASQSISSWLAWYQQKPGKAPKFLIYKASRLDRGVPSRFSGSGSGTEFSLTISSLQPDDFATYYCLEYSSYIRTFGQGTKVEIK",,1650 fold
"mAb5-0161 (monovalent one-armed version of mAb1-8785) (antibody, V domains shown) VH: EVQLVESGGGLVQPGRSLKLSCAASGFTFHDYAMHWVRQVPGKGLEWVSGISWRGDIIGYVDSVKGRFTISRDNKKNSLYLQLNSLRAEDTALYYCVKSYGSGSFYNAFDSWGQGTLVTVSS VL: DIQMTQSPSTLSASAGDRVTITCRASQSISSWLAWYQQKPGKAPKFLIYKASRLDRGVPSRFSGSGSGTEFSLTISSLQPDDFATYYCLEYSSYIRTFGQGTKVEIK",621 fold,
"mAb5-0152 (monovalent one-armed version of mAb1-8782) (antibody, V domains shown) VH: EVQLVESGGGLVQPGRSLKLSCAASGFTFHDYAMHWVRQVPGKGLEWVSGISWRGDITGYVDSVKGRFTISRDNAKNSLYLQLNSLRAEDTALYYCVKSYGSGSFYNAFDSWGQGTLVTVSS VL: DIQMTQSPSTLSASAGDRVTITCRASQSISSWLAWYQQKPGKAPKFLIYKASRLDRGVPSRFSGSGSGTEFSLTISSLQPDDFATYYCLEYSSYIRTFGQGTKVEIK",,417 fold

# The next lines start with the values.
Stimulation index at 800 nM OA antibody,Stimulation index at 1600 nM OA antibody,Binder
,918 fold,"mAb5-0658 (monovalent one-armed version of mAb1-8679) (antibody, V domains shown) VH: EVQLVESGGGLVQPGRSLKLSCAASGFTFDDYAMHWVRQVPGKGLEWVSGISWRGDIIGYVKSVKGRFTISRDNAKNSLYLQLNSLRAEDTALYYCVKSYGSGSFYNAFDSWGQGTLVTVSS VL: DIQMTQSPSTLSASVGDRVTITCRASKSIKSWLAWYQQKPGKAPKFLIYKASRLERGVPSRFSGSGSGTEFSLTISSLQPDDFATYYCLEYSSYIRTFGQGTKVEIK"
,283 fold,"mAb5-0514 (monovalent one-armed version of mAb1-8543) (antibody, V domains shown) VH: EVQLVESGGGLVQPGRSLKLSCAASKFRFDDYAMHWVRQVPGKGLEWVSGISWRGDIIGYVDSVKGRFTISRDNEKNSLYLQLNSLRAEDTALYYCVKSYGSGSFYNAFDSWGQGTLVTVSS VL: DIQMTQSPSTLSASAGDRVTITCRASQSISSWLAWYQQKPGKAPKFLIYKASRLERDVPSRFSGSGSGTEFSLTISSLQPDDFATYYCLEYRSYIRTFGQGTKVEIK"
,1330 fold,"mAb5-1263 (monovalent one-armed version of mAb1-9015) (antibody, V domains shown) VH: EVQLVESGGGLVQPGRSLKLSCAASGFTFDDYAMHWVRQVPGKGLEWVSGISWRGDIKGYVDSVKGRFTISRDNAKNSLYLQLNSLRAEDTALYYCVKSYGSGSFYNAFDSWGQGTLVTVSS VL: DIQMTQSPSTLSASAGDRVTITCRASQSISSWLAWYQQKPGKAPKFLIYKASRLERGVPSRFSGSGSGTEFSLTISSLQPDDFATYYCLEYSSYIRTFGQGTKVEIK"
,4320 fold,"mAb5-1270 (monovalent one-armed version of mAb1-9016) (antibody, V domains shown) VH: EVQLVESGGGLVQPGRSLKLSCAASGFTFDDYAMHWVRQVPGKGLEWVSGISWRGDIGGYVDSVKGRFTISRDNAKNSLYLQLNSLRAEDTALYYCVKSYGSGSFYNAFDSWGQGTLVTVSS VL: DIQMTQSPSTLSASAGDRVTITCRASQSISSWLAWYQQKPGKAPKFLIYKASRLERGVPSRFSGSGSGTEFSLTISSLQPDDFATYYCLEYSSYIRTFGQGTKVEIK"
